Results published in the supplement of paper PMC10065799, “High-throughput profiling of sequence recognition by tyrosine kinases and SH2 domains using bacterial peptide display” (eLife, 2023).

Tests used:
Fes = Fes (UniProt P07332); assay: phosphorylation enrichment, bacterial display (enrichment ratio); higher = better substrate or ligand; peptides without Tyr show the background
EPHB2 = EPHB2 (UniProt P29323); assay: as above
c-Src = assay: as above
Hck = Hck (UniProt P08631); assay: as above
AncSZ = assay: as above
FGFR1 = FGFR1 (UniProt P11362); assay: as above
EPHB1 = EPHB1 (UniProt P54762); assay: as above
MERTK = MERTK (UniProt Q12866); assay: as above
Jak2 = Jak2 (UniProt O60674); assay: as above
FGFR3 = FGFR3 (UniProt P22607); assay: as above
Fyn = Fyn (UniProt P06241); assay: as above
c-Abl (mouse) = assay: as above
Fer (mouse) = assay: as above
c-Src SH2 = assay: SH2 binding enrichment of the phosphorylated peptide, bacterial display (enrichment ratio); higher = better substrate or ligand; peptides without Tyr show the background
Grb2 SH2 = Grb2 SH2 (UniProt P62993); assay: as above
SHP2-C SH2 = assay: as above
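For SH2 binding enrichment of the phosphorylated peptide, bacterial display in this document: peptide library displayed on the E. coli surface as eCPX fusions, selected cells deep-sequenced, score is each peptide's frequency after selection divided by its frequency in the input.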
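For phosphorylation enrichment, bacterial display in this document: 11-residue human phosphosite peptides and single-mutation variants displayed on the E. coli surface, counted by deep sequencing, each peptide's frequency after selection divided by its frequency in the unselected input library; frequency after pTyr selection over input frequency; kinase dosed for 20-30% of maximal phosphorylation in three min.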

Chain of EPHB1 (P54762 whole entry, looked up): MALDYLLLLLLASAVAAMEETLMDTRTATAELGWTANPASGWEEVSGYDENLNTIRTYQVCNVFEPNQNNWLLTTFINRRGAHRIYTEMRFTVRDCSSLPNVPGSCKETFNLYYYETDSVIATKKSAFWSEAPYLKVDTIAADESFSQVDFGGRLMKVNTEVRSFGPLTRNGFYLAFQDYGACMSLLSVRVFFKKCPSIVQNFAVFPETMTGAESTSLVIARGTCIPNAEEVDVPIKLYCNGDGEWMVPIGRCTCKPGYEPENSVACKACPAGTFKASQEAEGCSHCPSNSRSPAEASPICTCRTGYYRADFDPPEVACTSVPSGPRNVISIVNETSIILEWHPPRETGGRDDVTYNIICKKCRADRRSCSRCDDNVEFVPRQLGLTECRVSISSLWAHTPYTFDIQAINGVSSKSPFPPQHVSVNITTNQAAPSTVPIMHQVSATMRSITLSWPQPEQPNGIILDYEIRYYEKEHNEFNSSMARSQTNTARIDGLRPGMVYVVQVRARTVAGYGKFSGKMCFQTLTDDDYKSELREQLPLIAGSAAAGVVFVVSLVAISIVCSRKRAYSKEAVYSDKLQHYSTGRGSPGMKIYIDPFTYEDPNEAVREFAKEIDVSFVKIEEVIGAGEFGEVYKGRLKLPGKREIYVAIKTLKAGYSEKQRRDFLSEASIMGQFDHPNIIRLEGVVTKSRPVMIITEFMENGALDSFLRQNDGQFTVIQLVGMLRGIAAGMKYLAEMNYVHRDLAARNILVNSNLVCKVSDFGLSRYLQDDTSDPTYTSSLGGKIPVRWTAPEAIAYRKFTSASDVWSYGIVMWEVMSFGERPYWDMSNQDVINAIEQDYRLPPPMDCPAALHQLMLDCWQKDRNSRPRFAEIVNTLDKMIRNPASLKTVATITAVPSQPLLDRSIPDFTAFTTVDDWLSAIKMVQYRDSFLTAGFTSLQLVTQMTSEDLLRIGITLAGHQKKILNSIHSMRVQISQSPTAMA
Chain of Hck (P08631 whole entry, looked up): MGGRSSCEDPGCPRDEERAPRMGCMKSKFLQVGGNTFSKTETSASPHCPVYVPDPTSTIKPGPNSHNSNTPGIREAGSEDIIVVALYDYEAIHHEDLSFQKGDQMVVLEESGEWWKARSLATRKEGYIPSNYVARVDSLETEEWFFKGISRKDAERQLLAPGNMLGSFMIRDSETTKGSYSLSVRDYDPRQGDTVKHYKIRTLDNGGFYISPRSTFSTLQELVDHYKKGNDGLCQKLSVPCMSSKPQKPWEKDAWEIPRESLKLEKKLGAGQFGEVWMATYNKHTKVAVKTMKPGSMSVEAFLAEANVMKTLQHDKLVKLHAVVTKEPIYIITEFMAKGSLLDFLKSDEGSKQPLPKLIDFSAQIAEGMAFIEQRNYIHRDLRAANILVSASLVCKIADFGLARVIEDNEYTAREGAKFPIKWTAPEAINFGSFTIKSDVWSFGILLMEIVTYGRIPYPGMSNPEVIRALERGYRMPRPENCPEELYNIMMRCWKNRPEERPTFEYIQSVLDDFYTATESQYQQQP
Chain of Grb2 SH2 (P62993 whole entry, looked up): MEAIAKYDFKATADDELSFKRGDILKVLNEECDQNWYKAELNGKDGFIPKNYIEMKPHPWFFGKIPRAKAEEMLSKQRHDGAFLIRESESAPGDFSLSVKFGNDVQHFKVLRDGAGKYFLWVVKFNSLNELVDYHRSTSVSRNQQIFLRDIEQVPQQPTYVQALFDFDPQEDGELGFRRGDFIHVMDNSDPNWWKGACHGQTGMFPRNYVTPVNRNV
Chain of Jak2 (O60674 whole entry, looked up): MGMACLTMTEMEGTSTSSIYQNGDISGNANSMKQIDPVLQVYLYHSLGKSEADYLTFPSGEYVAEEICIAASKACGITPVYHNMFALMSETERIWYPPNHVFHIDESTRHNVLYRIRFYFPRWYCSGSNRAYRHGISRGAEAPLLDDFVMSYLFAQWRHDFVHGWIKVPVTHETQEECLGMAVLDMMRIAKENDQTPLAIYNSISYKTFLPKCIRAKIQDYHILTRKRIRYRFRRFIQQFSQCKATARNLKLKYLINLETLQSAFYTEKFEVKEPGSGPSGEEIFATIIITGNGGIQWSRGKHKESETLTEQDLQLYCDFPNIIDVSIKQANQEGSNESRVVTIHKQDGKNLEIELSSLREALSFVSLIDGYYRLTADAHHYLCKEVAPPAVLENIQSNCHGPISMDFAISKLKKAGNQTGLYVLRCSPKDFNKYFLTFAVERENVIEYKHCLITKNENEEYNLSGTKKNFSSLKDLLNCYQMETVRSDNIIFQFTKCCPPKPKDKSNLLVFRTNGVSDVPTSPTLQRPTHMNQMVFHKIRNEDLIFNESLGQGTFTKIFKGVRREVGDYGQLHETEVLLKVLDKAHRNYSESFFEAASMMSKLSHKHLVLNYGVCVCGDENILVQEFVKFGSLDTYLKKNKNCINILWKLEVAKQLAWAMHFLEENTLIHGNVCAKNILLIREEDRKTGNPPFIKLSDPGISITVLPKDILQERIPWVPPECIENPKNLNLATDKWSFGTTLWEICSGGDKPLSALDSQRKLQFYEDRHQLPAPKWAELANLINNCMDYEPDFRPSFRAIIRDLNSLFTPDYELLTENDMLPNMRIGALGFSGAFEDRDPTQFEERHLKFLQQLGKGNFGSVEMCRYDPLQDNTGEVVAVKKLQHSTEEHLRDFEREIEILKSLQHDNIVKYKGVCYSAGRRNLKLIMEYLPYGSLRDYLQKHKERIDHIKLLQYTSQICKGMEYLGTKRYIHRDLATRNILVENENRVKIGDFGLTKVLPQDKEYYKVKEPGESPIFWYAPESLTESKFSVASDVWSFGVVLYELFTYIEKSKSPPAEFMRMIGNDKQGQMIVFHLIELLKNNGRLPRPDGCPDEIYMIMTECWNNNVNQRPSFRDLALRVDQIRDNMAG
Chain of FGFR1 (P11362 whole entry, looked up): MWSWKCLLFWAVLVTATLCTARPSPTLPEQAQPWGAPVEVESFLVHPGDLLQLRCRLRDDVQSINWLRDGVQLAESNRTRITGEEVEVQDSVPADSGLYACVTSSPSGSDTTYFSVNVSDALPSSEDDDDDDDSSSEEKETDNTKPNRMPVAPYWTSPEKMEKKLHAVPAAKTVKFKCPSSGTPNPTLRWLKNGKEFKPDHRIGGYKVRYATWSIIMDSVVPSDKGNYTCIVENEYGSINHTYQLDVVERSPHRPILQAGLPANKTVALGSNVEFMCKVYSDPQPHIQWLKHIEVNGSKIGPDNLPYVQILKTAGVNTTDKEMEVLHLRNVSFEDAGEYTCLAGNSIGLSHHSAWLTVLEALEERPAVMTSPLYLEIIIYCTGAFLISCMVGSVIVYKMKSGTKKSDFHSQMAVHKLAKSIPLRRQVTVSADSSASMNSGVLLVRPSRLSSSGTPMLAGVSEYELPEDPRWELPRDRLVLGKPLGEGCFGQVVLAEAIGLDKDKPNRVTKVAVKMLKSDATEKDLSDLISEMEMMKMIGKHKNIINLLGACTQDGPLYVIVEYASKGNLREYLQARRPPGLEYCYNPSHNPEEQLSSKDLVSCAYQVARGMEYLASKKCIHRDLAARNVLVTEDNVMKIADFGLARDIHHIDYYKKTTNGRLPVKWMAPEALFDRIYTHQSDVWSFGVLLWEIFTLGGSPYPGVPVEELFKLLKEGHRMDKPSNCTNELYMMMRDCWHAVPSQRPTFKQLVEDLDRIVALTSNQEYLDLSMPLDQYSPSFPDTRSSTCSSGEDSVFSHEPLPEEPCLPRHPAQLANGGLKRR
Chain of Fes (P07332 whole entry, looked up): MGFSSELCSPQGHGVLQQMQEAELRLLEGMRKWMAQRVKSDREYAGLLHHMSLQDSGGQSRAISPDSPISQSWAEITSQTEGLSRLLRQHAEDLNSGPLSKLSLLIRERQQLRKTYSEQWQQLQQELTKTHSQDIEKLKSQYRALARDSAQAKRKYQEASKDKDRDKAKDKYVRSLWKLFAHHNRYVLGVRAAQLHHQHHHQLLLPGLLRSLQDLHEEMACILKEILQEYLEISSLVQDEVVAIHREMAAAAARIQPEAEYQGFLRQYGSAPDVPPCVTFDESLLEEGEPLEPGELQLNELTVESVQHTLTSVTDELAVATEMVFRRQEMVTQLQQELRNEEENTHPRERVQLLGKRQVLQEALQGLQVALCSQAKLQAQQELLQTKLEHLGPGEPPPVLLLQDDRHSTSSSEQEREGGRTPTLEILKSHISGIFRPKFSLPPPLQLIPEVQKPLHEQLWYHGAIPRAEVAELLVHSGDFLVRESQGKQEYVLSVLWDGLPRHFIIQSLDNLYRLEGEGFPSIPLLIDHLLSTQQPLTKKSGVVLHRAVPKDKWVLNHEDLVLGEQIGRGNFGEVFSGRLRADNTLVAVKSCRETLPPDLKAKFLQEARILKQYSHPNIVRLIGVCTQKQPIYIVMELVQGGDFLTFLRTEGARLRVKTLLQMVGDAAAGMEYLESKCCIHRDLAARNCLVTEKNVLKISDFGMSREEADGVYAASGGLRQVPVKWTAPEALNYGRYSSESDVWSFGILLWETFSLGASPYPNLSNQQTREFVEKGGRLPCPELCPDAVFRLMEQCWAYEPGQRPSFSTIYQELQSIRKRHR
Chain of Fyn (P06241 whole entry, looked up): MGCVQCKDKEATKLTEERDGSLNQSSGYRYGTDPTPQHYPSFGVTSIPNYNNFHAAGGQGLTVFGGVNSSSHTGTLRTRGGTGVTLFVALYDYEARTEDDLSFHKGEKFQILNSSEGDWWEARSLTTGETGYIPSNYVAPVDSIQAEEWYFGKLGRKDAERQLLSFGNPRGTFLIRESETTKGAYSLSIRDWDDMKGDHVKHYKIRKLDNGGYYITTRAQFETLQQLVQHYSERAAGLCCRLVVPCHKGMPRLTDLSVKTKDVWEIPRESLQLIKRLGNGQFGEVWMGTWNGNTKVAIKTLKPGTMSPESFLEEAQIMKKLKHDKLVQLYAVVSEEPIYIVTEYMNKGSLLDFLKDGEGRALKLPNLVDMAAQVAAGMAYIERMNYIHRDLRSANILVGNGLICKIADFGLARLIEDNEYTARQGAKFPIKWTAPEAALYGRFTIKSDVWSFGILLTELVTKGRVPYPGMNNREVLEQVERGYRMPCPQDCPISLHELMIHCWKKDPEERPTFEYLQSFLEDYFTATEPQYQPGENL

| Sequence | phosphorylation enrichment (Fes) | phosphorylation enrichment (EPHB2) | phosphorylation enrichment (c-Src) | phosphorylation enrichment (Hck) | phosphorylation enrichment (AncSZ) | phosphorylation enrichment (FGFR1) | phosphorylation enrichment (EPHB1) | phosphorylation enrichment (MERTK) | phosphorylation enrichment (Jak2) | phosphorylation enrichment (FGFR3) | phosphorylation enrichment (Fyn) | phosphorylation enrichment (c-Abl (mouse)) | phosphorylation enrichment (Fer (mouse)) | SH2 binding enrichment (c-Src SH2) | SH2 binding enrichment (Grb2 SH2) | SH2 binding enrichment (SHP2-C SH2) |
| --- | --- | --- | --- | --- | --- | --- | --- | --- | --- | --- | --- | --- | --- | --- | --- | --- |
| STDDGYIDLQF [TMEM230_Y29] | 1.09 | 0.472 | 0.488 | 0.521 | 1.22 | 1.01 | 0.701 | 0.513 | 1.19 | 1.01 | 0.564 | 0.695 | 0.584 | 0.986 | 0.834 | 0.764 |
| DRLASDLDKVR [KRT10_Y160_Y160D] | 0.661 | 0.471 | 0.363 | 0.425 | 0.603 | 0.439 | 0.372 | 0.362 | 0.537 | 0.469 | 0.448 | 0.443 | 0.416 | 0.505 | 0.842 | 0.681 |
| DGLASYLDKVR [KRT12_Y139_R135G] | 0.757 | 0.414 | 0.414 | 0.375 | 0.664 | 0.363 | 0.41 | 0.415 | 0.631 | 0.51 | 0.422 | 0.685 | 0.365 | 0.437 | 0.872 | 0.737 |
| LDAFIYDAALL [GRIN2A_Y730_V734L] | 1.86 | 2.32 | 7.16 | 7.57 | 1.44 | 0.55 | 2.23 | 2.28 | 1.33 | 0.902 | 8.97 | 4.39 | 14.9 | 0.581 | 0.735 | 0.546 |
| DALDNYVVRGV [PCCA_Y473_I475V] | 0.823 | 0.536 | 0.436 | 0.394 | 0.751 | 0.458 | 0.499 | 0.37 | 0.793 | 0.466 | 0.507 | 0.674 | 0.387 | 0.617 | 0.732 | 0.725 |
| IFKAAYFGVFD [SLC25A4_Y191_R188K_YF] | 1.21 | 0.524 | 0.625 | 0.504 | 1.1 | 0.529 | 0.587 | 0.531 | 1.08 | 0.65 | 0.544 | 0.773 | 0.534 | 1.01 | 1.03 | 0.766 |
| SLNAVYPKAGS [OAS3_Y376_R378K] | 0.515 | 0.383 | 0.473 | 0.422 | 0.562 | 0.427 | 0.296 | 0.417 | 0.474 | 0.443 | 0.395 | 0.467 | 0.412 | 0.456 | 0.841 | 0.76 |
| YEREQYADRTR [RBM4_Y355_A359T] | 0.706 | 0.419 | 0.443 | 0.469 | 0.897 | 0.566 | 0.343 | 0.448 | 0.603 | 0.472 | 0.439 | 0.55 | 0.494 | 0.61 | 0.878 | 0.717 |
| QDIMAYRSREV [BCL6_Y157_G159S] | 0.746 | 0.343 | 0.513 | 0.314 | 0.569 | 0.285 | 0.456 | 0.398 | 0.759 | 0.664 | 0.323 | 0.745 | 0.196 | 0.42 | 0.699 | 0.955 |
| PLDGEYFTLQI [TP53_Y327] | 1.47 | 1.36 | 3.81 | 2.55 | 4.14 | 9.82 | 1.32 | 0.663 | 4.17 | 7.34 | 4.48 | 1.57 | 1.19 | 0.344 | 0.686 | 0.718 |
| NTCNRYCRDEI [ITGB3_Y660] | 0.777 | 0.427 | 0.5 | 0.407 | 0.794 | 0.492 | 0.567 | 0.535 | 0.714 | 0.486 | 0.485 | 0.596 | 0.43 | 0.808 | 0.938 | 0.658 |
| LINLKYSVEEE [PCDH19_Y27] | 2.46 | 0.755 | 1.19 | 0.447 | 1.36 | 0.525 | 0.755 | 0.583 | 1.88 | 0.895 | 0.579 | 1.12 | 0.806 | 0.525 | 0.868 | 0.548 |
| FLEEEYVKAVG [TF_Y674_G671E_YF] | 1.16 | 0.67 | 0.528 | 0.517 | 1.19 | 0.517 | 0.59 | 0.424 | 1.18 | 0.721 | 0.558 | 0.679 | 0.49 | 0.569 | 1.08 | 0.934 |
| GTVRDYPDFNP [ANXA3_Y15_S19N] | 0.796 | 0.431 | 0.357 | 0.418 | 0.785 | 0.403 | 0.519 | 0.304 | 0.9 | 0.526 | 0.404 | 0.663 | 0.407 | 0.536 | 0.874 | 0.609 |
| PLQHVYKIGGI [EEF1A2_Y254_D252H] | 1.06 | 0.71 | 0.959 | 0.865 | 0.964 | 0.649 | 0.73 | 0.739 | 1.52 | 0.733 | 0.643 | 0.766 | 0.696 | 0.517 | 0.941 | 0.588 |
| LRYDSYWSYCN [SLC20A2_Y433_S434W] | 1.53 | 9.36 | 4.87 | 4.95 | 2.25 | 3.88 | 7.63 | 5.37 | 2.4 | 3.72 | 5.26 | 1.68 | 1.51 | 1.43 | 0.974 | 0.803 |
| TENAGYYFRVS | 2.21 | 1.02 | 0.421 | 0.728 | 1.44 | 0.82 | 0.491 | 0.714 | 3.16 | 1.14 | 0.407 | 1.04 | 0.677 | 0.547 | 0.878 | 0.897 |

| Sequence | phosphorylation enrichment (Fes) | phosphorylation enrichment (EPHB2) | phosphorylation enrichment (c-Src) | phosphorylation enrichment (Hck) | phosphorylation enrichment (AncSZ) | phosphorylation enrichment (FGFR1) | phosphorylation enrichment (EPHB1) | phosphorylation enrichment (MERTK) | phosphorylation enrichment (Jak2) | phosphorylation enrichment (FGFR3) | phosphorylation enrichment (Fyn) | phosphorylation enrichment (c-Abl (mouse)) | phosphorylation enrichment (Fer (mouse)) | SH2 binding enrichment (c-Src SH2) | SH2 binding enrichment (Grb2 SH2) | SH2 binding enrichment (SHP2-C SH2) |
| --- | --- | --- | --- | --- | --- | --- | --- | --- | --- | --- | --- | --- | --- | --- | --- | --- |
| YETVKYINNER [ABCB7_Y345_F346I] | 0.943 | 0.623 | 1.1 | 1.96 | 0.858 | 1.22 | 0.73 | 0.903 | 0.803 | 0.832 | 1.22 | 0.619 | 10.5 | 11.8 | 1.48 | 1.24 |
| VRVQLYDPDYM [CYP4A22_Y100] | 1.27 | 0.776 | 0.615 | 0.807 | 1.56 | 0.538 | 1.27 | 0.887 | 1.15 | 0.741 | 0.493 | 0.79 | 0.599 | 0.545 | 1.08 | 1.45 |
| RSDEDYLFREE [POR_Y573_YF] | 2.36 | 0.964 | 0.836 | 0.983 | 1.47 | 0.914 | 0.865 | 0.592 | 1.66 | 1.34 | 0.768 | 1.31 | 0.891 | 0.477 | 0.847 | 0.642 |
| AEEKEYHAEGG [EGFR_Y869] | 1.05 | 0.593 | 0.486 | 0.451 | 1.09 | 0.474 | 0.623 | 0.403 | 0.908 | 0.596 | 0.536 | 0.653 | 0.572 | 0.471 | 0.924 | 0.748 |
| PTTKTYFPHFH [HBA1_Y43_D48H] | 1.14 | 0.399 | 0.655 | 0.688 | 0.721 | 0.602 | 0.457 | 0.605 | 0.951 | 0.559 | 0.598 | 0.676 | 0.496 | 0.761 | 0.971 | 0.981 |
| ATGGFYSYGGG [KRT24_Y120] | 1.11 | 0.885 | 1.26 | 1.8 | 0.906 | 0.506 | 0.881 | 11.6 | 0.858 | 0.659 | 2.39 | 0.763 | 4.4 | 0.858 | 0.82 | 0.871 |
| PSPTRYSLSPS [RANBP2_Y785] | 0.886 | 0.856 | 0.597 | 0.515 | 0.976 | 0.525 | 0.536 | 0.56 | 0.439 | 0.577 | 0.537 | 1.5 | 0.436 | 0.438 | 0.759 | 0.454 |
| LNTFHHAGVSA [POLR2A_Y1109_Y1109H] | 2.04 | 0.76 | 1.17 | 0.575 | 0.884 | 0.462 | 0.632 | 0.883 | 1.19 | 0.731 | 0.356 | 1.36 | 0.766 | 0.547 | 0.956 | 0.65 |
| PEPHIYAVADV [MYO9A_Y216_L211P] | 1.55 | 2.18 | 3.72 | 3.16 | 1.11 | 0.667 | 1.11 | 2.97 | 0.695 | 1.01 | 3.21 | 25 | 3.02 | 4.08 | 0.909 | 0.654 |
| SFLSYYTSHVQ [NEFL_Y443_P440L] | 1.1 | 1.01 | 0.936 | 0.794 | 1.01 | 1.04 | 1.26 | 2.19 | 2.1 | 1.01 | 0.585 | 0.828 | 0.583 | 2.51 | 1.17 | 3.81 |
| GDYYRSLAEVA [YWHAG_Y133_Y133S] | 0.75 | 1.09 | 0.664 | 1.36 | 1.3 | 5.42 | 1.68 | 0.663 | 1.45 | 3.26 | 0.916 | 1.82 | 0.419 | 0.699 | 1.02 | 0.648 |
| AKRKNYAPVAM [CFAP47_Y557] | 0.521 | 0.425 | 0.432 | 0.392 | 0.562 | 0.654 | 0.648 | 0.468 | 0.341 | 0.371 | 0.393 | 0.57 | 0.302 | 1.05 | 1.11 | 1.26 |
| NFATLYLKIFH [PDE6B_Y219_YF] | 1.27 | 0.599 | 0.434 | 0.497 | 1.21 | 0.669 | 0.604 | 0.457 | 0.953 | 0.734 | 0.412 | 0.83 | 0.502 | 0.781 | 1.26 | 1.1 |
| HLATEYVFSDF [PANX1_Y10_Q5H] | 1.39 | 1.04 | 1.28 | 0.661 | 2.12 | 1.67 | 0.808 | 0.639 | 1.17 | 1.23 | 0.935 | 0.863 | 0.788 | 0.576 | 0.755 | 0.884 |
| ICANKYMVKSC [RPL10_Y75] | 0.815 | 0.445 | 0.44 | 0.424 | 0.719 | 0.385 | 0.476 | 0.409 | 0.735 | 0.514 | 0.406 | 0.524 | 0.464 | 1.13 | 1.09 | 1.12 |
| DPHQQYFIAMD [TBX15_Y159_YF] | 1.1 | 0.577 | 0.637 | 0.544 | 0.93 | 1.02 | 0.504 | 0.511 | 1.06 | 1.19 | 0.551 | 0.792 | 0.396 | 0.655 | 0.917 | 0.71 |
